US7824885B2, “Engineered proteases for affinity purification and processing of fusion proteins” (University of Maryland, College Park, priority 2003, dated 2010)

Molecular target: S160 (Bacillus amyloliquefaciens, UniProt P00782, DEL180-188/E263S/G190A/G235S/G273S/G276A/I138L/K150N/M157F/N319G/N325S/Q313C/Q378E/S116A/S295P/T361A/Y211A/Y324L)
Assay: inhibition of S160 by prodomain pR58
Type: biochemical

Sequence of S160 (P00782 other isoform, or with tags, fused parts or gaps with the stated changes): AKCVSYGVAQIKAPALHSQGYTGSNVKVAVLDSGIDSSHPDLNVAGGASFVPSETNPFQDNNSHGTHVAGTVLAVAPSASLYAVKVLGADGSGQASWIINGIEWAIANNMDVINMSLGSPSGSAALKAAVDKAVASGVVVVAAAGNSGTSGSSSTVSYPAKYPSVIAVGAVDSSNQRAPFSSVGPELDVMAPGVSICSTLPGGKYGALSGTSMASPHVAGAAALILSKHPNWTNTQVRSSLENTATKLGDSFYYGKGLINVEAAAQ

B1: pR58: version of pR8 with its last four amino acids (AHAY) replaced with FRAM (protein)
chain: AGKSNGEKKYIVGFKSGIKSCAKKQDVISEKGGKLQKCFKYVDAASATLNEKAVKELKKDPSVAYVEEDKVFRAM
modifications: pR58 (pR8FRAM) variant of SEQ ID NO 2
notes: version of pR8 with its last four amino acids (AHAY) replaced with FRAM
**Q.** Which Ki does the source give for B1 here?
**A.** ~0.03 nM
